Measurements as given in patent US20080175878.

How the values were obtained:
[1] = molecular target: single chain urokinase plasminogen activator, P00749
[2] = molecular target: single chain tissue plasminogen activator, P00750
[3] = molecular target: T1, blood clotting factor VII, P08709
T1 chain: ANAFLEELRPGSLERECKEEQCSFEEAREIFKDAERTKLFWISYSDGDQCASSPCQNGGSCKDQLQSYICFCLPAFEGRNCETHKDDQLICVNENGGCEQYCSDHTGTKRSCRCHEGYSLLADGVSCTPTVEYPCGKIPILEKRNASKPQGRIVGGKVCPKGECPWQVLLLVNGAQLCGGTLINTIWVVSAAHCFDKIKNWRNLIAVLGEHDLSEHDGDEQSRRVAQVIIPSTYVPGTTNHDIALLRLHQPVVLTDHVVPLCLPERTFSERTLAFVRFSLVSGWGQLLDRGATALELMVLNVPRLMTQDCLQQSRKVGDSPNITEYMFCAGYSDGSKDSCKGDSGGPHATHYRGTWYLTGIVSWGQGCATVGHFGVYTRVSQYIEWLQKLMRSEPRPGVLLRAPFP

[4] = molecular target: blood clotting factor V, P12259
[5] = molecular target: blood clotting factor VIII, P00451
Sequence of blood clotting factor VIII, P00451 (P00451 whole entry, looked up): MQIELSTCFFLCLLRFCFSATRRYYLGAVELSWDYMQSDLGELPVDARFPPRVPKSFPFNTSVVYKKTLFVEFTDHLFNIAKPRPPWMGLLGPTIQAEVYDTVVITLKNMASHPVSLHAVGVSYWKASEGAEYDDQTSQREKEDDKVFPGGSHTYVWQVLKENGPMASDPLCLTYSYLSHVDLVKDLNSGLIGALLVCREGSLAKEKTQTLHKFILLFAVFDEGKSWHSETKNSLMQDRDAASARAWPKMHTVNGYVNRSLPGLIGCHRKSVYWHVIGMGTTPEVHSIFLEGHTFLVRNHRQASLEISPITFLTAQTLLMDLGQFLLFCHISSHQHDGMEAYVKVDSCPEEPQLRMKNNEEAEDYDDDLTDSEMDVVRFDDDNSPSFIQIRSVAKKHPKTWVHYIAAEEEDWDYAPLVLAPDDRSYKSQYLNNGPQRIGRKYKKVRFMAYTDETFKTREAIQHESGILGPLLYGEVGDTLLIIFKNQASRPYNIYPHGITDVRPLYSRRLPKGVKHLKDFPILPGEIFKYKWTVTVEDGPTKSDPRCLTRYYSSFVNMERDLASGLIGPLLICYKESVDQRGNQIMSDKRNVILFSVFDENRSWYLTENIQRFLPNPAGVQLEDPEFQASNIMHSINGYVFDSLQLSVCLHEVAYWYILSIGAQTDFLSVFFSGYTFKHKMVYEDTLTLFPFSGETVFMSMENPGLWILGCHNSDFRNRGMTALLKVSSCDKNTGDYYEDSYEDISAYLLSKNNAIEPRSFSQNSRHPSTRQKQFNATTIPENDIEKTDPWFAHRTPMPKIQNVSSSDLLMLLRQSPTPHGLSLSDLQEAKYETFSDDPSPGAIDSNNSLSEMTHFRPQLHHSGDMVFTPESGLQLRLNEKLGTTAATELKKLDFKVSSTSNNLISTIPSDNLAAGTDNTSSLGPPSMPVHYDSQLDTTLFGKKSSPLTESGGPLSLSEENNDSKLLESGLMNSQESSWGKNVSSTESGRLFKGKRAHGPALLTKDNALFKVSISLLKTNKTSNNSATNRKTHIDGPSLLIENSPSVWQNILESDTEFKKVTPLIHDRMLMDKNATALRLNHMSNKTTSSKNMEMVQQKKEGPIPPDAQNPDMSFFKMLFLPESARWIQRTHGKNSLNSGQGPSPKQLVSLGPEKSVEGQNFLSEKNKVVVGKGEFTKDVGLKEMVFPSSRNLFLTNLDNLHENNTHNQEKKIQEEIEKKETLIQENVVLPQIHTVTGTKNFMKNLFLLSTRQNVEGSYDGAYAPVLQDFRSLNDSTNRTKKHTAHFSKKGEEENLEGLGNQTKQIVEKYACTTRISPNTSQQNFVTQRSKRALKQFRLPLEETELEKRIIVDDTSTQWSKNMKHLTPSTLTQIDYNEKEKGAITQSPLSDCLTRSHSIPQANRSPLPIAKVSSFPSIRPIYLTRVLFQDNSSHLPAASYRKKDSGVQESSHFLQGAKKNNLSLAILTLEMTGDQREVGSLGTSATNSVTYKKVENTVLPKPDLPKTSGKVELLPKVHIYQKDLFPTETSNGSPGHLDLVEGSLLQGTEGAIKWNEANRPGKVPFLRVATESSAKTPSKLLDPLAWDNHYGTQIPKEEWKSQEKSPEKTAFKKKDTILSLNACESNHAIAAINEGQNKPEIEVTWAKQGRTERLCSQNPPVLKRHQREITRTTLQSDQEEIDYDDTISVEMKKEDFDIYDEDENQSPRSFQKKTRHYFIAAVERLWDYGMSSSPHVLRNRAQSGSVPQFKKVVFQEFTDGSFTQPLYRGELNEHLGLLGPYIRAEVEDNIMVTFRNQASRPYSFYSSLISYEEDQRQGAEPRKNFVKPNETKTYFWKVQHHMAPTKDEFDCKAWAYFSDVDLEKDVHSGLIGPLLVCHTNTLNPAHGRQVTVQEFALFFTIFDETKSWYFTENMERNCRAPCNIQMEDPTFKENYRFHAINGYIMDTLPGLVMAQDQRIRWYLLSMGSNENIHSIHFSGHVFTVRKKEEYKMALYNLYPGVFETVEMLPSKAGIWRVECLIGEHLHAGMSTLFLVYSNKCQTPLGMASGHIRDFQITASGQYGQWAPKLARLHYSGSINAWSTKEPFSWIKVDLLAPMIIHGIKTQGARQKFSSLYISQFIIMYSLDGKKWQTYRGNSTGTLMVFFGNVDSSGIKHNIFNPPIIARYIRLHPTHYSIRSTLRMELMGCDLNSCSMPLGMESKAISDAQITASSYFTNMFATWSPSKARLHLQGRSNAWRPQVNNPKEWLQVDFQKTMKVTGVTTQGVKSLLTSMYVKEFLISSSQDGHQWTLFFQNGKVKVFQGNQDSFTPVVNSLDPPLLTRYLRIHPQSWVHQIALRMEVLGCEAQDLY

Sequence of single chain tissue plasminogen activator, P00750 (P00750 36-562): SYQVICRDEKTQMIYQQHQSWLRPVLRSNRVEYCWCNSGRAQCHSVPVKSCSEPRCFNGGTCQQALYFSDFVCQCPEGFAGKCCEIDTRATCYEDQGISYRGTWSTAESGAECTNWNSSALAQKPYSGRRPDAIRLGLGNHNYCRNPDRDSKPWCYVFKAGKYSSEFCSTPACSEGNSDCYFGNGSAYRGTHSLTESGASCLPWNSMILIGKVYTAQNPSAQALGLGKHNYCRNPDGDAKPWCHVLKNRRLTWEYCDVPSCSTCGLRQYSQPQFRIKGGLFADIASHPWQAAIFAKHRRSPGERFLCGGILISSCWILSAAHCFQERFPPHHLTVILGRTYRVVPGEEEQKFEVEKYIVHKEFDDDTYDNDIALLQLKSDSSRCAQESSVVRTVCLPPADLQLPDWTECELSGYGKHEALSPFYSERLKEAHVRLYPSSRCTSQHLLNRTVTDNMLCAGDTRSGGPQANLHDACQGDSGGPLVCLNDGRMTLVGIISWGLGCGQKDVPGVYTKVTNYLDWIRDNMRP
Sequence of blood clotting factor V, P12259 (P12259 29-2224): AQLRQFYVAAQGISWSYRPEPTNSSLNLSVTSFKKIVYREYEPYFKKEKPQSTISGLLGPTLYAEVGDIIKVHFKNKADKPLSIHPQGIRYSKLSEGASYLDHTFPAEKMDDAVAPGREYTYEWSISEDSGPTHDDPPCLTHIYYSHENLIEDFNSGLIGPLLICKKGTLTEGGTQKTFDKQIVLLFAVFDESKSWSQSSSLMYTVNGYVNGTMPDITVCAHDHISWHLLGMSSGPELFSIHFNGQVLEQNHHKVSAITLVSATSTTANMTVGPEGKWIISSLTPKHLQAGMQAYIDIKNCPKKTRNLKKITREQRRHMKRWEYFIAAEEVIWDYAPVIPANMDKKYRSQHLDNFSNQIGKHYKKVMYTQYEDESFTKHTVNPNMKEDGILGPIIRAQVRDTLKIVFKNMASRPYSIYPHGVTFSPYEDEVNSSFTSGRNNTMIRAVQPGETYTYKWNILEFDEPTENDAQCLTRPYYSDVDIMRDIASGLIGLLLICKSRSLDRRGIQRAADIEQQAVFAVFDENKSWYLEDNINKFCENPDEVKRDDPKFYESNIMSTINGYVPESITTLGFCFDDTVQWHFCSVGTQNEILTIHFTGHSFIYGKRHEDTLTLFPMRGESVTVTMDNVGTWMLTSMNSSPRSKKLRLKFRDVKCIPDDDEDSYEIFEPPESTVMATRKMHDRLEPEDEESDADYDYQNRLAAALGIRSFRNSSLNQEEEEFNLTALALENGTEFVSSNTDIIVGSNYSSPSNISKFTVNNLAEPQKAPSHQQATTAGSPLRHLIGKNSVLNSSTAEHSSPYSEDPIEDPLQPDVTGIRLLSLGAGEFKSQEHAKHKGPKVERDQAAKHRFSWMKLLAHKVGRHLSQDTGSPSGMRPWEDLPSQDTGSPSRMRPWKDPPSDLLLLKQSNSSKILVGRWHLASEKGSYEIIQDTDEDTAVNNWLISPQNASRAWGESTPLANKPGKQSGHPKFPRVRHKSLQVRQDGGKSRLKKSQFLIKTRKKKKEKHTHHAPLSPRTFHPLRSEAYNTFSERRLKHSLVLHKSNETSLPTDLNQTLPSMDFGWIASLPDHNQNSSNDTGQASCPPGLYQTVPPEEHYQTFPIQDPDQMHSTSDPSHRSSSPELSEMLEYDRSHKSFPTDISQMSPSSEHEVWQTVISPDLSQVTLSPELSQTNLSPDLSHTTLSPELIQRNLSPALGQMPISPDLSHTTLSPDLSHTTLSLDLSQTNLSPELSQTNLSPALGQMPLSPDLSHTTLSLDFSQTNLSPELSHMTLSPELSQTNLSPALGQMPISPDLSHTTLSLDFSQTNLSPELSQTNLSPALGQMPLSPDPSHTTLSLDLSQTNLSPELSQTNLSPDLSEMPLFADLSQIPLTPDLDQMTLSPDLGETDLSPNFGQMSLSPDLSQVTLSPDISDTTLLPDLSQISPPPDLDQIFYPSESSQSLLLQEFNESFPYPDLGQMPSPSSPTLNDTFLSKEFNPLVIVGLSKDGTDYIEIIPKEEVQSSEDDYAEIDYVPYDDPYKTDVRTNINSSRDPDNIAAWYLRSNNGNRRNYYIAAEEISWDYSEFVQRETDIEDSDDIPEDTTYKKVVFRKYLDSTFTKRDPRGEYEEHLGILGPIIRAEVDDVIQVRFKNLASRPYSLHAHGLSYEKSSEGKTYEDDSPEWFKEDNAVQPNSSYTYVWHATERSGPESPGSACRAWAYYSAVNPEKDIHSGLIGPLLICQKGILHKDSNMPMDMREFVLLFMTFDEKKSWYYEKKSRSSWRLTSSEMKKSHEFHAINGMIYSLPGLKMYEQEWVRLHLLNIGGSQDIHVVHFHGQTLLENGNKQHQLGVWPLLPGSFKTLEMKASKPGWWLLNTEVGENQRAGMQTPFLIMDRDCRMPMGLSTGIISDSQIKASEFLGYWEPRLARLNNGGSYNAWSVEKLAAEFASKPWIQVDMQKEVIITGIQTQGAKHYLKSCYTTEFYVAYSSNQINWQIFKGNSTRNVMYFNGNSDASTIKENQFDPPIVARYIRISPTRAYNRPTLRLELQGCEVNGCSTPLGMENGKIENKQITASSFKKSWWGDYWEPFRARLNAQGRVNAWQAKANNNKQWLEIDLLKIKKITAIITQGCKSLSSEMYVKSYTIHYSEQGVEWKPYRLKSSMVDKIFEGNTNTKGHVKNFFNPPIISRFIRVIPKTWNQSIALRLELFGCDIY

B1: protease for activating the blood clotting factor VII (protein)
chain 1: LLESLDPDWTPDQYDYSYEDYNQEENTSSTLTHAENPDWYYTEDQADPCQPNPCEHGGDCLVHGSTFTCSCLAPFSGNKCQKVQNTCKDNPCGRGQCLITQSPPYYRCVCKHPYTGPSCSQVVPVCRPNPCQNGATCSRHKRRSKFTCACPDQFKGKFCEIGSDDCYVGDGYSYRGKMNRTVNQHACLYWNSHLLLQENYNMFMEDAETHGIGEHNFCRNPDADEKPWCFIKVTNDKVKWEYCDVSACSAQDVAYPEESPTEPSTKLPGFDSCGKTEIAERKIKR
chain 2: not shown
With B1 the Resulting PA activity (S-2444), no stimulant, 2 min, FVII activator 2 µg/ml [1] was 25 Δ mIU/min, the Resulting PA activity (S-2444), no stimulant, 2 min, FVII activator 5 µg/ml [1] was 60 Δ mIU/min and the Resulting PA activity (S-2444), no stimulant, 2 min, FVII activator 10 µg/ml [1] was 117 Δ mIU/min. The Resulting PA activity (S-2444), no stimulant, 5 min, FVII activator 2 µg/ml [1] was 79 Δ mIU/min, the Resulting PA activity (S-2444), no stimulant, 5 min, FVII activator 5 µg/ml [1] was 179 Δ mIU/min and the Resulting PA activity (S-2444), no stimulant, 5 min, FVII activator 10 µg/ml [1] was 165 Δ mIU/min. The Resulting PA activity (S-2444), no stimulant, 10 min, FVII activator 2 µg/ml [1] was 186 Δ mIU/min, the Resulting PA activity (S-2444), no stimulant, 10 min, FVII activator 5 µg/ml [1] was 449 Δ mIU/min and the Resulting PA activity (S-2444), no stimulant, 10 min, FVII activator 10 µg/ml [1] was 517 Δ mIU/min. The Resulting PA activity (S-2444), stimulant CaCl2, 2 min, FVII activator 2 µg/ml [1] was 255 Δ mIU/min, the Resulting PA activity (S-2444), stimulant CaCl2, 2 min, FVII activator 5 µg/ml [1] was 370 Δ mIU/min and the Resulting PA activity (S-2444), stimulant CaCl2, 2 min, FVII activator 10 µg/ml [1] was 401 Δ mIU/min. The Resulting PA activity (S-2444), stimulant CaCl2, 5 min, FVII activator 2 µg/ml [1] was 338 Δ mIU/min, the Resulting PA activity (S-2444), stimulant CaCl2, 5 min, FVII activator 5 µg/ml [1] was 424 Δ mIU/min and the Resulting PA activity (S-2444), stimulant CaCl2, 5 min, FVII activator 10 µg/ml [1] was 438 Δ mIU/min. For the same protein, the Resulting PA activity (S-2444), stimulant CaCl2, 10 min, FVII activator 2 µg/ml [1] was 416 Δ mIU/min, the Resulting PA activity (S-2444), stimulant CaCl2, 10 min, FVII activator 5 µg/ml [1] was 445 Δ mIU/min and the Resulting PA activity (S-2444), stimulant CaCl2, 10 min, FVII activator 10 µg/ml [1] was 448 Δ mIU/min. The Resulting PA activity (S-2444), stimulant heparin, 2 min, FVII activator 2 µg/ml [1] was 190 Δ mIU/min, the Resulting PA activity (S-2444), stimulant heparin, 2 min, FVII activator 5 µg/ml [1] was 332 Δ mIU/min and the Resulting PA activity (S-2444), stimulant heparin, 2 min, FVII activator 10 µg/ml [1] was 425 Δ mIU/min. For the same protein, the Resulting PA activity (S-2444), stimulant heparin, 5 min, FVII activator 2 µg/ml [1] was 330 Δ mIU/min, the Resulting PA activity (S-2444), stimulant heparin, 5 min, FVII activator 5 µg/ml [1] was 455 Δ mIU/min and the Resulting PA activity (S-2444), stimulant heparin, 5 min, FVII activator 10 µg/ml [1] was 458 Δ mIU/min. The Resulting PA activity (S-2444), stimulant heparin, 10 min, FVII activator 2 µg/ml [1] was 417 Δ mIU/min, the Resulting PA activity (S-2444), stimulant heparin, 10 min, FVII activator 5 µg/ml [1] was 462 Δ mIU/min and the Resulting PA activity (S-2444), stimulant heparin, 10 min, FVII activator 10 µg/ml [1] was 460 Δ mIU/min. The PA activity (S-2444), 20 min at 37° C., heparin 100 IU/ml, FVII activator 50 µg/ml [2] was 33.6 Δ mIU/min, the PA activity (S-2444), 20 min at 37° C., heparin 100 IU/ml, FVII activator 100 µg/ml [2] was 51 Δ mIU/min and the PA activity (S-2444), 20 min at 37° C., heparin 100 IU/ml, FVII activator 200 µg/ml [2] was 71.9 Δ mIU/min. For the same protein, the PA activity (S-2444), 20 min at 37° C., stimulant: CaCl2 [2] was 25.3 Δ mIU/min, the PA activity (S-2444), 20 min at 37° C., stimulant: heparin [2] was 63.8 Δ mIU/min and the PA activity (S-2444), 20 min at 37° C., stimulant: none [2] was 5.9 Δ mIU/min. For the same protein, the Resulting PA activity (S-2444), sctPA 100 µg/ml, incubation 1 min (FVII activator concentration not given) [2] was 10.2 Δ mIU/min, the Resulting PA activity (S-2444), sctPA 100 µg/ml, incubation 2 min (FVII activator concentration not given) [2] was 16.8 Δ mIU/min and the Resulting PA activity (S-2444), sctPA 100 µg/ml, incubation 5 min (FVII activator concentration not given) [2] was 38.8 Δ mIU/min. The Resulting PA activity (S-2444), sctPA 100 µg/ml, incubation 10 min (FVII activator concentration not given) [2] was 60.2 Δ mIU/min, the Resulting PA activity (S-2444), sctPA 100 µg/ml, incubation 20 min (FVII activator concentration not given) [2] was 73.3 Δ mIU/min and the FVII activation factor (x control), protease solution diluted 1:5, 5 min at RT (x times control) [3] was 2.6. The FVII activation factor (x control), protease solution diluted 1:10, 5 min at RT (x times control) [3] was 2, the FVII activation factor (x control), protease solution diluted 1:20, 5 min at RT (x times control) [3] was 1.6 and the FVII activation factor, 0.2 IU FVII/ml + 1:10 protease solution, incubation 0 min (x times control) [3] was 1. For the same protein, the FVII activation factor, 0.2 IU FVII/ml + 1:10 protease solution, incubation 2.5 min (x times control) [3] was 1.3, the FVII activation factor, 0.2 IU FVII/ml + 1:10 protease solution, incubation 5.0 min (x times control) [3] was 2 and the FVII activation factor, 0.2 IU FVII/ml + 1:10 protease solution, incubation 10.0 min (x times control) [3] was 2.8. For the same protein, the FVII activation factor, 0.2 IU FVII/ml + 1:10 protease solution, incubation 40.0 min (x times control) [3] was less than 3.8, the “FVIIa content (Staclot FVIIa-rTF test) after protease + FVII, 10 min, then aprotinin” value [3] was 18 mlU of FVIIa/ml and the “FVIIa formed by the action of the protease, after subtracting the base value” [3] was 8 mlU of FVIIa/ml have therefore been formed by the action of the protease. For the same protein, the Residual FV activity, protease 10 µg/ml, incubation 20 min [4] was 100, the Residual FV activity, protease 10 µg/ml, incubation column headed 0 (min) [4] was 93 and the Residual FV activity, protease 10 µg/ml, incubation column headed 0 (min), second column [4] was 91. The Residual FV activity, protease 30 µg/ml, incubation 20 min [4] was 28, the Residual FV activity, protease 30 µg/ml, incubation column headed 0 (min) [4] was 100 and the Residual FV activity, protease 30 µg/ml, incubation column headed 0 (min), second column [4] was 93. For the same protein, the Residual FV activity, protease 100 µg/ml, incubation 20 min [4] was 13, the Residual FV activity, protease 100 µg/ml, incubation column headed 0 (min) [4] was 100 and the Residual FV activity, protease 100 µg/ml, incubation column headed 0 (min), second column [4] was 29. The FVIII activity (% of control without protease), FVIII essentially free of vWF, protease 10 µg/ml, CaCl2, 0 min [5] was 97%, the FVIII activity (% of control without protease), FVIII essentially free of vWF, protease 10 µg/ml, CaCl2, 5 min [5] was 27% and the FVIII activity (% of control without protease), FVIII essentially free of vWF, protease 10 µg/ml, CaCl2, 10 min [5] was 11%. For the same protein, the FVIII activity (% of control without protease), FVIII essentially free of vWF, protease 10 µg/ml, CaCl2, 20 min [5] was less than 1%, the FVIII activity (% of control without protease), FVIII solution containing vWF, protease 10 µg/ml, CaCl2, 0 min [5] was 98% and the FVIII activity (% of control without protease), FVIII solution containing vWF, protease 10 µg/ml, CaCl2, 5 min [5] was 16%. The FVIII activity (% of control without protease), FVIII solution containing vWF, protease 10 µg/ml, CaCl2, 10 min [5] was 14%, the FVIII activity (% of control without protease), FVIII solution containing vWF, protease 10 µg/ml, CaCl2, 20 min [5] was 1% and the “residual active FVIII (chromogenic FVIII test), 10 min, protease 0.1, 1 and 10 µg/ml” value [5] was “As the protease concentration increased, correspondingly more FVIII was inactivated”. The “residual active FVIII (chromogenic FVIII test), protease 10 µg/ml, incubation time varied” value [5] was “A marked reduction in the residual concentration of active FVIII was seen as the length of incubation increased”, the “share of FVIII spared from the protease at calcium below 0.5 mM” value [5] was “the percentage spared is more than 60%” and the “share of FVIII spared from the protease at calcium below 1 mM” value [5] was “approx. 50% of the FVIII is then spared”.
